Laboratory results: the supplement of paper PMC9170038

Tested on: MS2 coat protein
Test: apparent KD of MS2 coat protein; designed switch direction (-1 OFF switch, 1 ON switch): -1; higher = weaker reporter binding
Procedure, shortened: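 The apparent KD reported per design is the median over clusters of curve fits to normalised cluster fluorescence. The RNA switches were transcribed on Illumina chips by stalled E. coli RNA polymerase. SNAP-549-labelled MS2 coat protein was titrated from 0.7 or 1.5 nM, doubling up to 3 µM, in Tris-HCl pH 7.5 buffer containing KCl, MgCl2, BSA, DTT, tRNA and Tween-20, with no input, 200 uM small-molecule ligand, or an oligonucleotide input.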

[1] = input ligand: microRNA oligo, concentration not stated
[2] = Eterna round: R95, input ligand: FMN 200 uM
[3] = Eterna round: R95, input ligand: microRNA oligo, concentration not stated
[4] = Eterna round: R95, input ligand: none

Sequence	apparent KD of MS2 coat protein (input ligand: FMN 200 uM) [µM]	apparent KD of MS2 coat protein [1] [µM]	apparent KD of MS2 coat protein (input ligand: none) [µM]	apparent KD of MS2 coat protein [2] [µM]	apparent KD of MS2 coat protein [3] [µM]	apparent KD of MS2 coat protein [4] [µM]
ACAUGAGGAUCACCCAUGUGAAAACAAUGGCUGACUUUGAGACAGGAUAUUCGUGCAUAUCAAACGAAGAAGGGUCAUUACUGG [Deportation 94 - Jieux - Exclusion NG 3] (Eterna round: R96, puzzle: Exclusion NG 3)	0.0422	0.0264	0.0377	–	–	–
AAGUACCGUCACGAUAGUGAUGGUACAGCAAGUAGUGAAACAUGAGGAUCACCCAUGUCCUCAAUUGCUCGUCUUAU [Sensor 3 - 82] (puzzle: Sensor v3, turn-off variant 2)	–	–	–	0.11	0.171	0.115
UUGUUAUAUGAAGGAUAUACUUAACAUGAGGAUCACCCAUGUGGUGUUGUGAGUGAGUGAGUUUAGUAGAAGGUCAAUUCUUUU [JMF's solution 94] (Eterna round: R96, puzzle: Exclusion NG 2)	0.735	0.44	0.421	–	–	–
CAAUAGGGAGGAUAUCCAAUAUAUGACAUGAGGAUCACCCAUGUUUCCACUCGUACCUCCGGAGAAGGCCCAUAAC [Ex5 #7] (Eterna round: R97, puzzle: Exclusion 5)	0.0211	–	0.0217	–	–	–
AUUUUGUCAGGAUAUGACUAGAUGCACGAAAGUGCAUCUACUUAGAAGGGACAUGAGGAUCACCCAUGUAUUCC [Bring Us a Shrubbery-11] (puzzle: Exclusion 4)	–	–	–	–	0.0139	–
ACCUCACAUGAGGAUCACCCAUGUCAGGAUAUACAAGAAAAUAACCGGAAAGACCGGAGUAGAAGGGACAUAAG [Arisus] (puzzle: Exclusion 1)	–	–	–	0.0303	0.0162	0.0171
AGCUGUGAGUGAGGAUAUCUGCUGUUGUCAGUCGGAGAAGGCGCGGACAGAACAUGAGGAUCACCCAUGUGUAUGGGCGGCCUC [Usatia] (Eterna round: R96, puzzle: Exclusion NG 1)	0.217	0.0436	0.0855	–	–	–
GCUUGAGCAGGAUAUACAUGAGGAUCACCCAUGUGCUUGAGCUUGAUCGAGUUCGAGUGUAGAAGGGUUCGAGU [-26.9, -23.9 kcal, 24% A, 1 bis, 1 bis] (Eterna round: R97, puzzle: Exclusion 3)	0.0208	–	0.0197	–	–	–
GGUGCGUCUGUGAGGAUAUGCUGGUCCUUGGCUCGGCAGAAGGCACAUGAGGAUCACCCAUGUGGUGUCGUGCC [salish99_Bmod_ex4_058] (puzzle: Brourd's mod of Exclusion 4)	–	–	–	–	0.0167	–
UUGUUCCGUGUAGGAUAUUGGUCUCCCUCGGGCCGAGAAGGACAUGAGGAUCACCCAUGUAUGUUAUUAUCGCGCGUGGCGCAU [Design 91] (Eterna round: R96, puzzle: Exclusion NG 1)	0.112	0.0216	0.0379	–	–	–
UUAUUAUAUGUAGGAUAUGCAUAUUAUUAUUAUGCAGAAGGACAUGAGGAUCACCCAUGUAUAUUAUUAUUGUAUAUUAUAUAU [Title] (Eterna round: R96, puzzle: Exclusion NG 1)	–	0.0257	–	–	–	–
GAUACACAUGAGGAUCACCCAUGUGAGGAUAUGGAGGAGUUGCGAGUAAGCGAUGGAUCCAGAAGGCGCGUGAG [JR_Ex1_Sub082] (Eterna round: R97, puzzle: Exclusion 1)	0.0732	–	0.0642	–	–	–
GCUGGCUGAGGAUAUCUAUCCAUGAACAUGAGGAUCACCCAUGUAAACGUGGAGUGAGAUAGAGAAGGCGGGCAGA [EX5 A.13] (Eterna round: R97, puzzle: Exclusion 5)	0.0136	–	0.0112	–	–	–
GCCGUUAAGGUAGGAUAUGCUCGGUCUGUUCGUGCAGAAGGGCUGGUCGGCGACUUGAGGAUCACCCAAGUGGUCUUAUAGAAA [Mutated MS2 EX1.19] (Eterna round: R96, puzzle: Exclusion NG 1)	0.0996	0.0523	0.0548	–	–	–
UGUGCGUAUGUGAGGAUAUGCUGGUCCUUGGAUCGGCAGAAGGCACAUGAGGAUCACCCAUGUGGUGUCGUACA [salish99_Bmod_ex4_086] (puzzle: Brourd's mod of Exclusion 4)	–	–	–	–	0.204	–
ACGCGUGAAGGAUAUACGCGGGCCCAAGCGGAUCACACCGCACAUGAGGAUCACCCAUGUAGAAGGUCGCAAAA [r4x2dt3] (Eterna round: R97, puzzle: Exclusion 2)	0.0334	–	0.0139	–	–	–
GCCGUAAAUGUGAGGAUAUACCUAUGGAUACAUAGGUAGAAGGCACAUGAGGAUCACCCAUGUCCUUAAUCGGC [Eli BMX r4m3] (Eterna round: R97, puzzle: Brourd's mod of Exclusion 4)	0.73	–	0.409	–	–	–
CUUAUGUGAGGAUAUGCCUGGCCGUGAGGCCAAAUUGAUUAGCAGAAGGCACAUGAGGAUCACCCAUGUGCGGG [jl-ex4-4.67 ViennaUCT mod] (Eterna round: R97, puzzle: Exclusion 4)	0.34	–	0.479	–	–	–
AGCUGUGGCCGAGGAUAUACACAUGAGGAUCACCCAUGUAGGCGCGGAUACGCGCUAAAAUAAUUGUAGAAGGCGGUCUCAGCA [Eli eng2 - 054] (Eterna round: R96, puzzle: Exclusion NG 2)	0.00388	0.00592	0.0106	–	–	–
CAAUUCUGAGGAUAUGUGCCUCUGGACAUGAGGAUCACCCAUGUGGAGGCUGUAUGGGAGGCAGAAGGUAGAGAUC [Eternabot (L1) Solution 7] (Eterna round: R97, puzzle: Exclusion 5)	0.0164	–	0.0182	–	–	–
AUUGAUAGCACAGGAUAUUGAGAUUUGAAUUGACAAGAAGGGUGUACAUGAGGAUCACCCAUGUAAUGGGAGAAUGAUUGAUUA [JR_ExcNG1_Sub001] (Eterna round: R96, puzzle: Exclusion NG 1)	1.26	1.04	1.64	–	–	–
GAUUAUGCGAGCUUUAGGGACAUGAGGAUCACCCAUGUUCGUCUUAUUAGUCUGAAUACACUGACAUACCUAAAUCU [JMF 55] (puzzle: Sensor v3, turn-off variant 1)	–	–	–	0.0148	0.0195	0.0178
CAUAGUUACACAGGAUAUAGUACAUGAGGAUCACCCAUGUAAUAAAUGAGAAUUUCGAAUGUAUACUAGAAGGGUGAAAUCUAC [Ostracism 54 - Jieux - Exclusion NG 2] (Eterna round: R96, puzzle: Exclusion NG 2)	0.206	0.144	0.171	–	–	–
